In US20250262292A1:

How the values were obtained:
[1] = target: native host protein; test: method not stated; reference is wild type PmSLP-1 (SEQ.ID NO: 2)
[2] = target: native host protein; test: method not stated

| Substance | factor by which Kd exceeds that of the native non-modified PmSLP [1] | Kd [2] |
| --- | --- | --- |
| modified PmSLP-1 with E240A mutation (SEQ.ID NO: 67) | > 500 fold | < 2 µM |
| modified PmSLP-1 with V214D mutation (SEQ.ID NO: 65) | > 500 fold | < 2 µM |
| wild type PmSLP-1 protein of P. multocida (SEQ.ID NO: 2) | – | 0.03 µM |
